Measurements taken from patent publication US20150174265A1 (MIT, published 2015).

B1: E6N2 (Fc fusion)
chain: VSDVPRDLEVVAATPTSLLISWFDYAVTYYRITYGETGGNSPVQEFTVPGWISTATISGLKPGVDYTITVYAVTDNSRWPFRSTPISINYRTEIDKPSQ

Experiments:
[1] = tested on: E6N2 (anti-EGFR Fn3 clone E6 - mouse IgG2a Fc - PKR dsRBD) C121V,C135V (Homo sapiens); assay: flow
[2] = target: epidermal growth factor receptor (EGFR) on human cancer cell lines (human, UniProt P00533 25-1210)

Row | Molecule | Kd [1] | binding signal [1] | Kd [2]
1 | AllStars Negative Control siRNA, Alexa 488 labeled | 3.5 nM | > 100 fold | –
2 | B1 | – | – | ~2.1 nM
